{"source": "paper PMC4770226", "binders": {"B1": {"name": "biotin-labeled forked 22-mer dsDNA (dsDNA)", "DNA 1": "CGCGCCCAGCTTTCCCAGCTAATAAACTAAAAACTCCTAAGG", "DNA 2": "CCTTAGGAGTTTTTAGTTTATTGGGCGCG"}}, "key": {"Ku70-5A/Ku80 heterodimer": {"biological_target": "Ku70-5A/Ku80 heterodimer (human, UniProt P12956;P13010 1-609;1-732, T305A;S306A;T307A;S314A;T316A;Ku70:)", "sequence (P12956 whole entry T305A/S306A/T307A/S314A/T316A, chain 1 of 2)": "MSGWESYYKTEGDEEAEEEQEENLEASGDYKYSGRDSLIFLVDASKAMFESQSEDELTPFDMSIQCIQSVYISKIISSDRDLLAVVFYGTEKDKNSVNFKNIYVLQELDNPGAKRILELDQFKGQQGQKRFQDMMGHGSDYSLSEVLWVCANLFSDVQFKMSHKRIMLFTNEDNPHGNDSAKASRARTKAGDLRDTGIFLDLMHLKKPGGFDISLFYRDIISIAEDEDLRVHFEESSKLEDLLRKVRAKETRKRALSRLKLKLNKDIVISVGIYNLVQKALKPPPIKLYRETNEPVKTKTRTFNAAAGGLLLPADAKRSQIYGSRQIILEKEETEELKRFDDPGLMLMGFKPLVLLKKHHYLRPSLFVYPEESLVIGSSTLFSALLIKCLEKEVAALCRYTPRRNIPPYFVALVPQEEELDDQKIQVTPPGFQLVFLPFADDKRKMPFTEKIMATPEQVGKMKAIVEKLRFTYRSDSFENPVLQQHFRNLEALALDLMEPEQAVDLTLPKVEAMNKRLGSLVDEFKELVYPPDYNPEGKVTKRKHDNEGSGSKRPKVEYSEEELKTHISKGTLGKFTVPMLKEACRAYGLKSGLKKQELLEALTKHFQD", "sequence (P13010 whole entry, stated change not applied, chain 2 of 2)": "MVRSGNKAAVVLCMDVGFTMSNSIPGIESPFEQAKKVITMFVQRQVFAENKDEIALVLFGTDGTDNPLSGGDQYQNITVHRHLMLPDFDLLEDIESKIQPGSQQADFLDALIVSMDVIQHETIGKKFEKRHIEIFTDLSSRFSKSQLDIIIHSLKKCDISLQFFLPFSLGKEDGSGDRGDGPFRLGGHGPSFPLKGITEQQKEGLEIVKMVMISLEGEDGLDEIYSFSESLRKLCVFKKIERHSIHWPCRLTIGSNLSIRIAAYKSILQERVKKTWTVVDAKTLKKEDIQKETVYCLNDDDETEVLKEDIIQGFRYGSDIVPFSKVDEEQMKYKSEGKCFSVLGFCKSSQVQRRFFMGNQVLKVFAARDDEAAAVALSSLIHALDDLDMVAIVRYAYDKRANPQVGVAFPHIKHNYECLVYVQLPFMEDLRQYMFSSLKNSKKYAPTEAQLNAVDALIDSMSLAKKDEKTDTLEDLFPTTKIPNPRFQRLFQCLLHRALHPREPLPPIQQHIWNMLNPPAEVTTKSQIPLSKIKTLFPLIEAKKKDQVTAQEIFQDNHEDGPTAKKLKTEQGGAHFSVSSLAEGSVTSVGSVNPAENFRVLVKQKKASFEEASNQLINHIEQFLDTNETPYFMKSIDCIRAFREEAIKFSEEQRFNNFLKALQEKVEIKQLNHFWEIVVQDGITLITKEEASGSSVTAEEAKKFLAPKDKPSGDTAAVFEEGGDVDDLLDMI", "assay": "pull-down"}, "[1]": {"biological_target": "Ku70/Ku80 heterodimer, wild-type (human, UniProt P12956;P13010 1-609;1-732)", "sequence (P12956 whole entry, chain 1 of 2)": "as the sequence (P12956 whole entry T305A/S306A/T307A/S314A/T316A, chain 1 of 2) above, with A305T, A306S, A307T, A314S, A316T counted along it", "sequence (P13010 whole entry, chain 2 of 2)": "as the sequence (P13010 whole entry, stated change not applied, chain 2 of 2) above", "assay": "pull-down"}}, "data": [{"binder": "B1", "values": [{"measurement": "binding result", "setting": "Ku70-5A/Ku80 heterodimer", "value": "binds"}, {"measurement": "binding result", "setting": "[1]", "value": "binds"}]}]}
